Data from US20060200330A1, “Methods and systems for modeling and simulating biochemical pathways” (KOREA INSTITUTE OF SCIENCE AND TECHNOLOGY, priority 2005, published 2006).
Read-outs that look alike come from different tables or passages of the source.

Key:
ERK = test: Western blot of ERK activation (anti-diphosphorylated ERK) in PC12 cells; format: cell-based; details: PC12 cells treated with 100 ng/ml EGF for 0 to 120 min
Experimental: (§1) In order to confirm the simulation, PC12 cells treated with EGF (100 ng/ml) were used to measure the time data tracking the activation levels of MEK and ERK, respectively. […] Western blot analysis was performed as follows. PC12 cells were treated with 100 ng/ml EGF for 0 to 120 min. Dissolved protein samples were reacted by using anti-phosphorylated MEK antibodies and anti-diphosphorylated ERK antibodies. Then, the resultant was reacted with anti-HRP (horse radish peroxidase)-conjugated secondary antibodies and confirmed the presence of a band via ECL chemoluminscence.
(§2) PC12 cells treated with EGF or nerve growth factor (NGF) were examined to evaluate the efficacies of PD09859 (10 μM) and U0126 (0.01-10 μM) in respect of MEK and ERK activation. Western blot analysis was performed as follows. PC12 cells treated with PD09859 and U0126 were treated with 100 ng/ml of EGF or NGF for 5 min. Then, the resulting protein sample was separated by performing SDS/PAGE, and then blotted by using anti-phosphorylated MEK and anti-diphosphoryated ERK antibodies. Again, the resultant was blotted by using anti-HRP (horseradish peroxidase) conjugated secondary antibodies and identified in bands by ECL chemo-luminescence.

EGFR = details: cited from earlier work
MEK = test: Western blot of MEK activation (anti-phosphorylated MEK) in PC12 cells; format: cell-based
Experimental: as §1, §2

B1: EGF: peptide growth factor composed of 55 amino acids in a long chain (protein, UniProt P01133 23-1207, looked up)
Pro-epidermal growth factor: PQHWSCPEGTLAGNGNSTCVGPAPFLIFSHGNSIFRIDTEGTNYEQLVVDAGVSVIMDFHYNEKRIYWVDLERQLLQRVFLNGSRQERVCNIEKNVSGMAINWINEEVIWSNQQEGIITVTDMKGNNSHILLSALKYPANVAVDPVERFIFWSSEVAGSLYRADLDGVGVKALLETSEKITAVSLDVLDKRLFWIQYNREGSNSLICSCDYDGGSVHISKHPTQHNLFAMSLFGDRIFYSTWKMKTIWIANKHTGKDMVRINLHSSFVPLGELKVVHPLAQPKAEDDTWEPEQKLCKLRKGNCSSTVCGQDLQSHLCMCAEGYALSRDRKYCEDVNECAFWNHGCTLGCKNTPGSYYCTCPVGFVLLPDGKRCHQLVSCPRNVSECSHDCVLTSEGPLCFCPEGSVLERDGKTCSGCSSPDNGGCSQLCVPLSPVSWECDCFPGYDLQLDEKSCAASGPQPFLLFANSQDIRHMHFDGTDYGTLLSQQMGMVYALDHDPVENKIYFAHTALKWIERANMDGSQRERLIEEGVDVPEGLAVDWIGRRFYWTDRGKSLIGRSDLNGKRSKIITKENISQPRGIAVHPMAKRLFWTDTGINPRIESSSLQGLGRLVIASSDLIWPSGITIDFLTDKLYWCDAKQSVIEMANLDGSKRRRLTQNDVGHPFAVAVFEDYVWFSDWAMPSVMRVNKRTGKDRVRLQGSMLKPSSLVVVHPLAKPGADPCLYQNGGCEHICKKRLGTAWCSCREGFMKASDGKTCLALDGHQLLAGGEVDLKNQVTPLDILSKTRVSEDNITESQHMLVAEIMVSDQDDCAPVGCSMYARCISEGEDATCQCLKGFAGDGKLCSDIDECEMGVPVCPPASSKCINTEGGYVCRCSEGYQGDGIHCLDIDECQLGEHSCGENASCTNTEGGYTCMCAGRLSEPGLICPDSTPPPHLREDDHHYSVRNSDSECPLSHDGYCLHDGVCMYIEALDKYACNCVVGYIGERCQYRDLKWWELRHAGHGQQQKVIVVAVCVVVLVMLLLLSLWGAHYYRTQKLLSKNPKNPYEESSRDVRSRRPADTEDGMSSCPQPWFVVIKEHQDLKNGGQPVAGEDGQAADGSMQPTSWRQEPQLCGMGTEQGCWIPVSSDKGSCPQVMERSFHMPSYGTQTLEGGVEKPHSLLSANPLWQQRALDPPHQMELTQ
modifications: Pro-epidermal growth factor
notes: peptide growth factor composed of 55 amino acids in a long chain
In the case of B1, the “ERK activation, time course” value (ERK) is listed as “temporary activation”, the Kd (EGFR; EGFR high affinity binding, read-out: dissociation constant (Kd), interaction with a high affinity) is listed as under 1 nM and the Kd (EGFR; EGFR low affinity binding, read-out: dissociation constant (Kd), interaction with a low affinity) is listed as 6 to 12 nM. The “MEK activation, time course” value (MEK; PC12 cells treated with 100 ng/ml EGF for 0 to 120 min) was “temporary activation” and the MEK activation (MEK; PC12 cells treated with EGF 100 ng/ml for 5 min) was “became still higher”.
